Experiment: yeast display, Sf9 membrane polyspecificity reagent, FACS + sequencing; frameworks hold sequencing errors
How it was run: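 Genes from sorted yeast were amplified by colony PCR, read by MiSeq 2 × 250 sequencing and filtered on CDR length. These cells carried a synthetic nanobody library in Saccharomyces cerevisiae BJ5465 and were sorted by FACS into low and high (top ~1%) gates on anti-HA and streptavidin fluorescence. Polyreactivity is labelled according to the gate of origin.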

Sequence | polyreactivity (PSR sort gate)
QVQLVESGGGLVQAGGSLRLSCAASGSTFSVYAMGWYRQAPGKERELVASISSSVGRTFYADSVKGRFTISRDNSKNTVYLQMNSLKPEDTAVYYCNAGVRYSGFDYWGQGTQVTVSS | high polyreactivity
HVQLVETGGGLVQAGGSLRLSCAASGSTFYIYAMGCYRPAPGKEREFVAAIDFSGSSTYADSVKGRFTISRDNAKNTVYLQMNSLKPEDTAVYYCSARWYLTGGWTWVSFSHDYWGQGTQVTVSS | low polyreactivity
QVQLVESGGGLVQAGGSLRLSCAASGRTFDYNAIGWYRQAPGKERDFVAAISGRGGSTYYADSVKARFTISRDNAKNRVYLQMYSLKPEDTAVYYCAADLRFRYSGRYDYWGQGTQVTVSS | high polyreactivity
QVQLEESGGGIVQAGGSLRLSCAASGSTFRKYAMRWYRQAPGKERDFVAAITWSTGTTYYADSVKGRFTISRDNAKNTVYLQMNSLKPEDTAVYFCAADSQPPHELYESIEHESWGQGTQVTVSS | low polyreactivity
QVQLVESGGGLVQAGGSLRLSCAASGRIFVKSAMGWYRPAPGQERELVAAITSDGSTSYADSVKGRFTISRDNAKNTVYLQMNSQKPEDTAVYYCAKDFFEHSPVSHTYSSSKYDYWGQGTQVTVSS | low polyreactivity
QVQLVESGGGLVQAGGSLRLSCAASGSIFGAIAMGWYRQAPGKERELVPAITSGGSTNYADSVKGRFTISRDNAKNTFYLQMNSLKPEDTAVYYCAARRRYAKFRYDYWGQGTQVTVSS | high polyreactivity
QVQLVESGGGLVQAGGSLRLSCAASGFIFPPYDMGWYRQAPGKERELVADITYSDGITYYADSVKGRFTISRDNAMNTVYLQMNSLKPEDTAVYYCNADYSRIGPEVDYWGQGTQVTVSS | low polyreactivity
QVQLVESGGGLVQAGGSLRLSCAASGFTFTGYAMGWYRQAPGKERELVAAISSSGGSTYYADSVKGRFTISRDNAKNTVYLQMNSLKPEDTAVYYCNARISDAHYQCNYFLVLYDYWGQGTQVTVSS | low polyreactivity
QVQLVESGGGLVQAGGSLRLSCAASGFIFVYNDMGWYRPAPGKERELVASISNGDNTNYADSVKGRFTISRDNAKNTVYLQMNSLKQEDTAVYYCAARGTIYVLGVPARPVPDGDYWGQGTQVTVSS | low polyreactivity
QVQLVESGGGLVQAGGSLRLSCAASGRIFVKNAMGWYRQAPGKERELVAAISSGSSTNYADSVKGRFTISRDNAKNTVYLQMNSLKPEDTAVYYCAARQAQWDDYWGQGTQVTVSS | high polyreactivity
QVQLVESGGGLVQAGGSLRLSCAASGRNFTIYAMGWYRQAPGKERELVATISSNVGSTYYADSVKGRFTISRDNAKNTVYLQMNSLKPEDTAVYYCNVVPYLYGLDGYDYWGQGTQVTVSS | high polyreactivity
QVQLVESGGGLVQAGGSLSLSCAASGFTFGTNAMGWYRQAPGKERELVAAISSRGGSTYYADSVKGRFTISRDNAKNTVYLEMNSLKPEDTAVYYCARRVAGRQHEYGYWGLGTQVTVSS | high polyreactivity
QVQLVESGGGLVQAGGSLRLSCAASGRTFWRNAMGWYRQAPWKERELVAAISRSGDSTRYADSVKGRFTISRDNAKYSVYLQRTSLKPEATAVYYCNKLGTGVYEMDYWGQGTKVTVSS | high polyreactivity
QVQLVESGGGLVQAGGSLRLSCAASGSIFYGYAMGWYRQAPGKERELVAAISWTGGRTYYADSVKGRFTISRDNAKNTVYLQMNSLKPEDTAVYYCNVRRYSVVSGGYCGQGTQVTVSS | high polyreactivity
QVQLVESGGGLVQAGGSHRLSCAASGSTFWGYTMRWYRQAPGKERELVAAITRSSGRTYYADSVKGRFTISRDNAKITVYLQMNSLKPEETAVYYCNAAAVGRRTWSPYDYWGQGTQVTVSS | high polyreactivity
QVQLVESGGGLVQAGGSLRLSCAASGFTLTRNAMGWYRQAPGKERELVAAISWSGGTTYYADSVKGRFTISRDNAKNTVYLQMNSLKPEDTAVYYCAADYTLQRQTSFLDSEFYWGQGTQVTVSS | high polyreactivity
QVQLVESGGGLVQAGGSLRLSCAASGRTFTPYAKGWYRQAPGKERELVATISSGTSTNYADSVKGRFTISLDNAKYTVYLQMNSLKPEDTAVYYCAADGYTYKFDYWGQGSQVTVSS | low polyreactivity
QVQLVESGGGLVQAGGSLRLSCAASGRTFETNAMGWYRQAPGKERELVAAISRSGGRTYYADSVKGRFTISRDNAKNTVYLQMNSLKPEDTAVYYCAVRQATVTGGGYWGQGTQVTVSS | high polyreactivity
QVQLVESGGGLVQAGGSLRLSCAASGSTFSLYAMGWYRQAPGKERELVAAITRSGGGTHYADSVKGRFTISRDNAKNTVYLQMNSLKPEDTAVYYCAKRQSGYRYDYWGQGTEVTVSS | low polyreactivity
QVQLVESGGGLVQAGGSLRLSCAASGSIFGLYAMGWYRQAPGKERELVAAISGSGSRTYYADSVKGRFTISRDNAKNTVYLQMNSLKPEDTAVYYCAADRYWYGVHASIYYYWGQGTQVTVSS | high polyreactivity
QVQLVESGGGLVQAGGSLRLSCAASGFIFYRYTMGWYRQAPGKERELVAAISGSGGSTYYADSVKGRFTISRDNAKNTVYLQMNSLKPEDTAVYYCAAAHRYWGQGTQVTVSS | high polyreactivity
QVQLLESGGGLVQAGGSLRLSCAASGYTFTWYAMGWYRQAPGTEREFVAAISIGGDSTYYADSVKGRFTNSRDNAKNTVYLLMNSLIPEDTAVYYCAADTYPRWILLIGELQVETSYDYWGQGTQVTVSS | low polyreactivity

Sequence | polyreactivity (PSR sort gate)
QVQLVESGGGLVQAGGSLRLSCAASGRIIGAYAMGWYRQAPGKERELVAAITSRGGNTYYADSVKGRITISRDNAKNTVYFQMNSLKPEDTAVYYCAAGVRAYNWCEYDYWGQGTQVTVSS | low polyreactivity
QVQLVESGGGLVQAGGSLRLSCAASGSIFGKNAMGWYRQAPGKERELVASITWDGSSTYYADSVKGRFTISRDNAKNTVYLQMNSLKPEDTAVYYCNADYHVQYEYYPYDYWGQGTQVTVSS | low polyreactivity
QVQVVESGGGLVQTGGSLRLSCAASGSTFRRYDMGWYRPAPGKEWELVAAISVSGGNTYYADSVKGRFTISRDNAKNTVYLQMNSLKPEDTAVYYCATSRWVDNKYTLRSRYYYWGQGTQVTVSS | high polyreactivity
QVQLVESGGGLVHAGGSLRLSCAASGRIFHFNAMGWYRPAPGIERELVATITKRGGRTYYADSVKGRFTISRDNAKNTVYLQMNSLKPEDTAVYYCNADQSRYSAVSGYDYWGQGTQVTVSS | high polyreactivity
QVQLVESGGGLVQAGGSLRLSCAASGGIFLYYAMGWYSQAPGKVRELVAAISSRGGSTYYAHSVKGRYTISRDNAKNTVYLQMNSLKPEDTAVYYCAAESGYYRRTGIFYSWGQGTHVTVSS | high polyreactivity
QVQLVESGGGLVQAGGSLRLSCAASGRIFWDYAMGWYRQAPGKERELVAGISYSGGSTSYADSVKGRFTISRDNAKNTVYLQMNSLKPEDTAVYYCAARPSGTFFRDYDYWGQGTQVTVSS | low polyreactivity
QVQLVESGGGLVQAGGSLRLSCAAYGSIFYYYAKGWYRQAPGKERELVAAINGGDTYYADSVKGRFTISRDNAKNTVYLHMNSLKPEDTAVYYCAAEGVTVEWDYDYWGQGTQVTVSS | low polyreactivity
QVQLVESGGGLVQAGGSLRLSCAASGRTFYQYAMGWYRQAPGKERELVAAITRRGGSTYYADSVKGRFTISRDNAKNTVYLQMNSLKPDDTAVYYCNAQYKKGFDYWGQGPQVTVSS | high polyreactivity
QVQLIESGGGLVQAGGSLRLSCAASGSSLYYYALGWYRQAPGKEREWVAAISSSDGRTYYADSVKGRFTISRDNAKNTVYVQMNSLKPEDTAVYYCNAAVYAHRYIYGFDYWGQGTQVTVSS | high polyreactivity
QVQLVESGGGLVQAGGSLRLSCAAYGFTFYLNAMGWYRPAPGKERELVAAISYSDGSTYYADSVKGRFTISRDNAKNTVYLQMTSLKPEDTAVYYCAADTTDPGGAYQLMDYWGQGTQVSVSS | low polyreactivity
QVELVESGGCLVQARGSLRLSCAGSGSIFYRNAMGWYRQAPGKERELVAAISSDGSTNYADSVKGRFTISRDNAKITVDLQMNSLIPEDTAVYYCAGPWTEILDYWGQGTQVTVSS | low polyreactivity
QVQLVESGGGLVQAGGSLRLSCAASGSTFGAYAMGWYRQAPGKERELVAVINSDGSTNYADSVKGRFTISRDNAKHTVYLQMNSLKPEDTAVYYCAKDRTSRGGVPRMNYWGQGTQVTVSS | low polyreactivity
QVQREESGGGLVQAGGSLRLSCAASGSTFDGNSMGWYTQAPGKERELVAAIRKSGGRTYYADSVKGRFTISRDNAKNTVYLQMNSLKPDDTAVYYCAAYERGFTYRRYYWGQGTQVTVSS | high polyreactivity
QVQLVESGGGLVQAGGSLRLSCAASGRTFWYYEMGWYRQAPGKERELVATINNVGSTHYADSVKGRFTISRDNAKNTVYLQMNSLKPEDTAVYYCGRASYGKMDYWGQGTQVTVSS | high polyreactivity
QVQLVESGGGLVQAGGSLRLSCAASGFSFRGYAMGWYRQAPGKERELVAAINYSGGSTYYADSVKGRFTISRDNAKNTVYLQMNSLKPEDTAVYYCAAGKRGDDDYWGQGTQVTVSS | high polyreactivity
QVQLVESGGGLVQAGGSLRLSCDASGITFGYYAMGWYRQAPGKERELVAAISNSGRTYYADSVKGRFTISRDNAKNSVYLQMNSLKPEDTAVYYCAADDAYYDFYFWGQGTQVTVSS | low polyreactivity
QVQLVESGRGLVQAGGSLRLSCASSGRIFTYTAMGWYRQAPWKDSELVARITSGGNTNYADSVKGRFTISRDNAKNTVYLPMNSLKPEDTAVYYSATGLYWFTNRYGCWGLGTQVTVSS | low polyreactivity
QVQLVESGGGLVQAGGSLRLSCAASGITFQANAMGWYRQAPGKERELVAAISSSDGSTYYADSVKGRFTISRDNAKNTVYVQMNSLKPEDTAVYYCAADGVVYGWPEYEYWGQGTQVTVSS | low polyreactivity
QVHLVESGGGLVQPGGSLRLSCAASGSTFQTYAMVWYRQAPGKERELVAAITSGGSTNYADSVKGRFTISRDNAKNTVYLQMNSVYPEVTAVYFCAVRQIYQTSDHRLQYDYWGQGTQVTVSS | low polyreactivity
QVQLVETGGGLVQAGGSLRLSCAASGRTFEYNAMGWYRQAPGKERELVATIRYSGTSTYADSVKGRFTISRDNAKNPVYLQMNSQKPEDTAVYYCAKQVRYYGYKYNYWGQGTQVTVSS | high polyreactivity
QVQLVESGGGLVQAGGSLRLSCAASGSTFPKYGMGWYRQAPGKESEFVARINWNGGGTYYADSVKGRFTISRDNAKNTVYLQMNSLKPEDTAVYYCNARKRGARFILGYDYWGQGTQVTVSS | low polyreactivity

Source: the nanobody polyreactivity screen of Harvey et al. (2022)
